Read-outs that look alike come from different tables or passages of the source.
Columns and labels:
[1] = biological target: T1, CD25 protein (Sino Biological, 10165-H08H) (UniProt P01589 22-213); assay: ELISA; CD25 protein coated in a dilution series, antibody at one fixed concentration, anti-human IgG/HRP
T1 construct: Bought recombinant protein; It speaks elsewhere of human CD25; also called antigen CD25; IL-2Rα
T1 sequence (looked up): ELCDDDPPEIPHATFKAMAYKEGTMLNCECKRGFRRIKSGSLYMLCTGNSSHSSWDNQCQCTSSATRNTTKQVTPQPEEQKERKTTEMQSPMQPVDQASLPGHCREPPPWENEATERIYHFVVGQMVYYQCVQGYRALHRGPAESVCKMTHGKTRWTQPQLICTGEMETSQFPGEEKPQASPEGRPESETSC
Excerpt: (§1) The results are shown in FIG. 2A to FIG. 2E and Table 2 to Table 6.

[2] = biological target: T1, CD25 protein (Sino Biological, …); assay: as above; remark: listed apart in the source
Excerpt: as §1

[3] = biological target: T1, CD25 protein (Sino Biological, …); assay: as above; remark: listed apart in the source
Excerpt: as §1

[4] = biological target: T2, CD25 on cells (SU-DHL-1 target cells; PBMC) (UniProt P01589 22-272, limits assumed); assay: cell-based or functional assay
T2 sequence (looked up): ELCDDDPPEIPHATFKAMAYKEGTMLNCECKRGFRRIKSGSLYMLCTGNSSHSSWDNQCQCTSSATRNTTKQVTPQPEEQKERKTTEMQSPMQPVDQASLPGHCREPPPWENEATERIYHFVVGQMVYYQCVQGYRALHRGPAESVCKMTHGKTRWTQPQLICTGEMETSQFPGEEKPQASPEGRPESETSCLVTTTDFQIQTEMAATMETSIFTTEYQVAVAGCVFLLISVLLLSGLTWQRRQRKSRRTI

[5] = biological target: T1, CD25 protein (Sino Biological, …); assay: ELISA; CD25 protein coated in a dilution series, antibody at one fixed concentration, anti-human IgG/HRP; remark: listed apart in the source
Excerpt: as §1

[6] = biological target: T1, CD25 protein (Sino Biological, …); assay: as above; remark: listed apart in the source
Excerpt: as §1

[7] = biological target: T1, CD25 protein (Sino Biological, …); assay: SPR (BIAcore 8K); antibody captured by anti-human IgG Fc, CD25 protein as analyte, 1:1 model
Method: Antibody binding kinetics uses BIAcore8K instrument based on surface plasmon resonance (SRP) technology to measure. Anti-human IgG antibody amino was coupled to a CMS biosensor chip by the GE anti Human IgG Fc amino coupling kit (GE, cat # BR-1008-39) to obtain approximately 1000 response units (RU). For kinetic measurements, the CD25 protein (Sino Biological, 10165-H08H) was diluted 2-fold continuously with HBS-EP+1×(GE, BR-1008-26) buffer, starting at 50 nM, being diluted 2-fold for 4 concentration gradients and setting 0 concentration. The antibody to be detected: 2 μg/ml, sample injection time 70 s, flow rate 5 μL/min, stable for 5 s; CD25 protein: binding for 60 s, flow rate 30 μL/min, dissociation for 450 s; regeneration: regeneration was performed for 30 s with 3M MgCl₂ buffer, Startup 3 times. The association constant (ka) and dissociation constant (kd) were calculated using a simple one-to-one Languir binding model (BIAcore Evaluation Software version 3.2), and the equilibrium dissociation constant (KD) was calculated by the ratio kd/ka.

[8] = biological target: T2, CD25 on cells (SU-DHL-1 target cells; …); assay: cell-based or functional assay; remark: listed apart in the source
[9] = biological target: T2, CD25 on cells (SU-DHL-1 target cells; …); assay: cell-based or functional assay; remark: listed apart in the source

| Binder | EC50 [1] [mg/L] | EC50 [2] [mg/L] | EC50 [3] [mg/L] | EC50 of simulated killing activity (Jurkat effector reporter cells, SU-DHL-1 target cells, luminescence) [4] [mg/L] | EC50 [5] [mg/L] | EC50 [6] [mg/L] | Kd [7] [nM] | koff [7] [s⁻¹] | kon [7] [M⁻¹ s⁻¹] | EC50 of simulated killing activity (Jurkat effector reporter cells, SU-DHL-1 target cells, luminescence) [8] [mg/L] | % PSTAT5 in CD3 positive T cells of PBMC after IL2, with 10 µg/mL antibody [9] [%] |
| --- | --- | --- | --- | --- | --- | --- | --- | --- | --- | --- | --- |
| CD25-MA251-IgG1 (antibody, V domains shown, also called CD25Q-MA251; control antibody) VH: QVQLKESGPGLVAPSQSLSITCTVSGFSLTSYGIQWVRQPPGKGLEWLGVIWAGGSTNYNSALMSRLSISKDNSKSQVFLKMNSLQTDDTAMYYCARAYGYDGSWLAYWGQGTLVTVSS VL: QIVLSQSPAILSASPGEKVTMTCRASSSVSYMHWYQQKPGSSPKPWIFATSNLASGVPARFSGSGSGTSYSLTINRVEAEDADTYYCQQWSSNPPTFGGGTKLEIKR | 0.017 | 0.0106 | 0.0121 | 0.361 | 0.0245 | 0.0141 | 5.19 | 0.000912 | 176000 | 0.255 | 18.5 |
| CD25Q11-CT848-IgG1 (antibody, V domains shown, IgG1 expressed in HEK293) VH: QVQLQQWGAGLLKPSETLSLTCAVYGGSFSGSYWSWIRQSPRKGLEWIGEIDHSGSTIANPSLKSRITISLDTSKNQFFLQLRSMTAADTAVYYCARGEAFDIWGQGTMVTVSS VL: not shown |  |  |  |  | 0.00916 |  | 3.09 | 0.00218 | 705000 |  | 15.8 |
| CD25Q8-BT942-IgG1 (antibody, V domains shown, IgG1 expressed in HEK293) VH: QVQLVQSGAEVKKPGSSVKVSCKASGGTFSSDAINWVRQAPGQGLEWMGRIIPIFGVADYAQKFQGRVTLTADKSTSTAYMDLSSLRSEDTAVFYCARERGDYSNFWYFDLWGRGTLVTVSS VL: not shown |  |  |  |  | 0.00226 |  | 3.79 | 0.000339 | 89600 |  | 16.5 |
